The results in this text go back to patent US20250163127A1 (published 2025).

One experiment has as its target T1, human TIGIT (human, UniProt Q495A1).
T1 sequence: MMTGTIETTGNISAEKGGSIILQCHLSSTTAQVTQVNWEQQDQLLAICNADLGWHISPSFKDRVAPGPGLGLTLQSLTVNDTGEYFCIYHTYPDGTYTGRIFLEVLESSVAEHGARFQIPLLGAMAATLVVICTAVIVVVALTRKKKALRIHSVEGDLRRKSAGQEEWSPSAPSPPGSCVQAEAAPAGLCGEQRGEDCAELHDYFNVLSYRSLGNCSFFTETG
As to the kind of experiment: flow cytometry, Jurkat/IL-2/TIGIT cells. On the technique in general: A flow cytometer gives signals particle by particle.

Experiment [1] concerns the target CD2 (Homo sapiens (Human), UniProt P06729). As to the kind of experiment: flow cytometry, CHO-CD2 cells.
Experiment [2] concerns the target CD2 (human, UniProt P06729). In words: cell-based or functional assay.
The target of the next experiment is T2, TIGIT (human, UniProt Q495A1).
T2 sequence: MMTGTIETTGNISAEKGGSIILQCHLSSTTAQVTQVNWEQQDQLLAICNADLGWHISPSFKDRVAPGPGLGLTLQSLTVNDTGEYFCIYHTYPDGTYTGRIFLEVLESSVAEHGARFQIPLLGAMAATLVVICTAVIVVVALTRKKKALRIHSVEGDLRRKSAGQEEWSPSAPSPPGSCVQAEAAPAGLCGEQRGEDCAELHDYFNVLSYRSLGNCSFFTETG
In words: cell-based or functional assay.

The target in a further experiment is T3, CD80 (human).
T3 chain: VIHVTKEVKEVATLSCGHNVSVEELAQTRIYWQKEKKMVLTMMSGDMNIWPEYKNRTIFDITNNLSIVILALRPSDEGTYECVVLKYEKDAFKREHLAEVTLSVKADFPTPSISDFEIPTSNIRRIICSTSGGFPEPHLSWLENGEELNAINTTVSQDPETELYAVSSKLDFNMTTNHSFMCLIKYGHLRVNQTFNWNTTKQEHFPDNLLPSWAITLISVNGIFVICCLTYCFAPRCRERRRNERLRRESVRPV
As to the kind of experiment: flow cytometry, CHO-CD80 cells.

In the next experiment the target is human CTLA-4 (human). In words: flow cytometry, CHO/CTLA-4 cells, 100 nM, anti-Flag.
The next experiment has as its target human PD-1 (human, UniProt Q15116). In words: flow cytometry, CHO/PD-1 cells, 100 nM, anti-Flag.
Experiment [3] concerns the target T4, human CD28 (human, UniProt P10747). In words: flow cytometry, Jurkat cells (endogenous CD28), 100 nM, anti-Flag.
Experiment [4] addresses T4, human CD28. As to the kind of experiment: flow cytometry, Expi-CD28 cells.

Sequence of human CTLA-4 (human) (chain, as listed by the source): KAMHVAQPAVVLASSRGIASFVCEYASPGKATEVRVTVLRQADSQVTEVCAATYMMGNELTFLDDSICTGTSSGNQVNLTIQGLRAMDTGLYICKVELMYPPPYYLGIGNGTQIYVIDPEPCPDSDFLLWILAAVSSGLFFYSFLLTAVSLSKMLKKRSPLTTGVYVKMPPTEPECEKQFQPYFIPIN

B1: CD58 3650-CD155 665-Fc (Fc fusion)
chain: SQQIYGVVYGNVTFHVPSNVPLKEVLWKKQKDKVAELENSEFRAFSSFKNRVYLDTVSGSLTIYNLTSSDEDEYEMESPNITDTMKFFLYVLESGGGGSGGGGSGGGGSWPPPGTGDVVVQAPTQVSGFLGDSVTLPCYLQVPNMEVTHVSQLTWARHGESGSMAVFHQTQGPWYAESKRLEFVAARLGAELRNASLRVFGLRAEDEGNYTCQFVTFPQRSRSVDIWLRVLGSGGGGSEPKSSDKTHTCPPCPAPEAEGAPSVFLFPPKPKDTLMISRTPEVTCVVVDVSHEDPEVKFNWYVDGVEVHNAKTKPREEQYNSTYRVVSVLTVLHQDWLNGKEYKCKVSNKALPAPIEKTISKAKGQPREPQVYTLPPSRDELTKNQVSLTCLVKGFYPSDIAVEWESNGQPENNYKTTPPVLDSDGSFFLYSKLTVDKSRWQQGNVFSCSVMHEALHNHYTQKSLSLSPG
As to B1, the EC50 was determined as 1 nM with human TIGIT and 0.935 nM in the experiment with CD2 [1].

B2: CD58 3650-CD155 665-Fc (Fc fusion)
chain: SQQIYGVVYGNVTFHVPSNVPLKEVLWKKQKDKVAELENSEFRAFSSFKNRVYLDTVSGSLTIYNLTSSDEDEYEMESPNITDTMKFFLYVLESGGGGSGGGGSGGGGSWPPPGTGDVVVQAPTQVSGFLGDSVTLPCYLQVPNMEVTHVSQLTWARHGESGSMAVFHQTQGPWYAESKRLEFVAARLGAELRNASLRVFGLRAEDEGNYTCQFVTFPQRSRSVDIWLRVLGSGGGGSEPKSSDKTHTCPPCPAPEAEGAPSVFLFPPKPKDTLMISRTPEVTCVVVDVSHEDPEVKFNWYVDGVEVHNAKTKPREEQYNSTYRVVSVLTVLHQDWLNGKEYKCKVSNKALPAPIEKTISKAKGQPREPQVYTLPPSRDELTKNQVSLTCLVKGFYPSDIAVEWESNGQPENNYKTTPPVLDSDGSFFLYSKLTVDKSRWQQGNVFSCSVMHEALHNHYTQKSLSLSPG
As for B2, the “100 nM IFN-gamma (pg/mL), SEB assay” value with CD2 [2] and with TIGIT was 6490 pg/mL in each case.

B3: CTLA-4 3060-CD155 665-Fc (Fc fusion)
chain: KAMHVAQPAVVFASSHGIASFVCEYASPWKATEVRVTVLRQADSQVTEVCAATYMTGNELTFLDDSICTGTSSGNQVNLTIQGLRAMDTGLYICKVEQMYPPPYLLGIGNGTQIYVIDPEPCPDSDGGGGSGGGGSGGGGSWPPPGTGDVVVQAPTQVSGFLGDSVTLPCYLQVPNMEVTHVSQLTWARHGESGSMAVFHQTQGPWYAESKRLEFVAARLGAELRNASLRVFGLRAEDEGNYTCQFVTFPQRSRSVDIWLRVLGSGGGGSEPKSSDKTHTCPPCPAPEAEGAPSVFLFPPKPKDTLMISRTPEVTCVVVDVSHEDPEVKFNWYVDGVEVHNAKTKPREEQYNSTYRVVSVLTVLHQDWLNGKEYKCKVSNKALPAPIEKTISKAKGQPREPQVYTLPPSRDELTKNQVSLTCLVKGFYPSDIAVEWESNGQPENNYKTTPPVLDSDGSFFLYSKLTVDKSRWQQGNVFSCSVMHEALHNHYTQKSLSLSPG
On to B3, for which the EC50 with human TIGIT amounted to 3.4 nM; with CD80 it was 1.8 nM.

B4: CD155 665-CTLA-4 3037-Fc (Fc fusion)
chain: WPPPGTGDVVVQAPTQVSGFLGDSVTLPCYLQVPNMEVTHVSQLTWARHGESGSMAVFHQTQGPWYAESKRLEFVAARLGAELRNASLRVFGLRAEDEGNYTCQFVTFPQRSRSVDIWLRVLGGGGSGGGGSGGGGSKAMHVAQPAVVFASSHGIASFVCEYASPWKATEVRVTVLRQADSQVTEVCAATYMTGNELTFLDDSICTGTSSGNQVNLTIQGLRAMDTGLYICKVEQMYPPPYLLGIGNGTQIYVIDPEPCPDSDGSGGGGSEPKSSDKTHTCPPCPAPEAEGAPSVFLFPPKPKDTLMISRTPEVTCVVVDVSHEDPEVKFNWYVDGVEVHNAKTKPREEQYNSTYRVVSVLTVLHQDWLNGKEYKCKVSNKALPAPIEKTISKAKGQPREPQVYTLPPSRDELTKNQVSLTCLVKGFYPSDIAVEWESNGQPENNYKTTPPVLDSDGSFFLYSKLTVDKSRWQQGNVFSCSVMHEALHNHYTQKSLSLSPG
Regarding B4, the EC50 with human TIGIT worked out at 0.6 nM; with CD80, 4.1 nM.

B5: PD-L2 1417-CD80 2616 (other)
chain: LFTVTVPKELYIIEQGSNVTLECNFDTGSHVNLGAITASLQKVENDASPHRERATLLEEQLPLGRALFHIPQVQVRDEGQYRCIIIYGDAWDYKYLTLKVKAGSGGSGGGGSGGGGSVIHVTKEVKEVATLSCGHNVSLEELAQTRIYWQKGKKMVLTMMSGDMNIWPEYKNRTIFDITNNLSIVILDPRPSDEGTYECVVLKYEKDAFKREHLAEVDYKDDDDKHHHHHH
As for B5, the MFI with human CTLA-4 came to 79.3; with human PD-1 it was 20000; in the experiment with human CD28 [3], 89.2.

B6: PD-L2 1417-CD80 2617 (other)
chain: LFTVTVPKELYIIEQGSNVTLECNFDTGSHVNLGAITASLQKVENDASPHRERATLLEEQLPLGRALFHIPQVQVRDEGQYRCIIIYGDAWDYKYLTLKVKAGSGGSGGGGSGGGGSVIHVTKEVKEVATLSCGHNVSVEELAQTRIYWQKGKKMVLTMMSGDMNIWPEYENRTIFDITNNLSIVILDPRPSDEGTYECVVLKYEKDAFKREHLAEVDYKDDDDKHHHHHH
B6: the MFI with human CTLA-4 is 85; with human PD-1 it was 13700; with human CD28 [3], 94.2.

B7: CD80 2616-PD-L2 1417 (other)
chain: VIHVTKEVKEVATLSCGHNVSLEELAQTRIYWQKGKKMVLTMMSGDMNIWPEYKNRTIFDITNNLSIVILDPRPSDEGTYECVVLKYEKDAFKREHLAEVGSGGSGGGGSGGGGSLFTVTVPKELYIIEQGSNVTLECNFDTGSHVNLGAITASLQKVENDASPHRERATLLEEQLPLGRALFHIPQVQVRDEGQYRCIIIYGDAWDYKYLTLKVKADYKDDDDKHHHHHH
In the case of B7, the results for the MFI with human CTLA-4, with human PD-1 and in the experiment with human CD28 [3] were 82.5, 1520 and 92.2, respectively.

B8: CD80 2617-PD-L2 1417 (other)
chain: VIHVTKEVKEVATLSCGHNVSVEELAQTRIYWQKGKKMVLTMMSGDMNIWPEYENRTIFDITNNLSIVILDPRPSDEGTYECVVLKYEKDAFKREHLAEVGSGGSGGGGSGGGGSLFTVTVPKELYIIEQGSNVTLECNFDTGSHVNLGAITASLQKVENDASPHRERATLLEEQLPLGRALFHIPQVQVRDEGQYRCIIIYGDAWDYKYLTLKVKADYKDDDDKHHHHHH
As for B8, the values for the MFI in the experiment with human CTLA-4, with human PD-1 and with human CD28 [3] were 75.5, 1390 and 110, respectively.

B9: CD155 665-CD58 3650-Fc (Fc fusion)
chain: WPPPGTGDVVVQAPTQVSGFLGDSVTLPCYLQVPNMEVTHVSQLTWARHGESGSMAVFHQTQGPWYAESKRLEFVAARLGAELRNASLRVFGLRAEDEGNYTCQFVTFPQRSRSVDIWLRVLGGGGSGGGGSGGGGSSQQIYGVVYGNVTFHVPSNVPLKEVLWKKQKDKVAELENSEFRAFSSFKNRVYLDTVSGSLTIYNLTSSDEDEYEMESPNITDTMKFFLYVLESGSGGGGSEPKSSDKTHTCPPCPAPEAEGAPSVFLFPPKPKDTLMISRTPEVTCVVVDVSHEDPEVKFNWYVDGVEVHNAKTKPREEQYNSTYRVVSVLTVLHQDWLNGKEYKCKVSNKALPAPIEKTISKAKGQPREPQVYTLPPSRDELTKNQVSLTCLVKGFYPSDIAVEWESNGQPENNYKTTPPVLDSDGSFFLYSKLTVDKSRWQQGNVFSCSVMHEALHNHYTQKSLSLSPG
On to B9, for which the results for the EC50 with human TIGIT and with CD2 [1] were 0.733 nM and 0.845 nM, respectively.

B10: CD155 665-ICOSL 2264-ICOSL 2264-CD155 665 (other)
chain: WPPPGTGDVVVQAPTQVSGFLGDSVTLPCYLQVPNMEVTHVSQLTWARHGESGSMAVFHQTQGPWYAESKRLEFVAARLGAELRNASLRVFGLRAEDEGNYTCQFVTFPQRSRSVDIWLRVLGGGGSGGGGTGGGGSDTQEKEVRAMVGSDVELSCACPEGSRFDLNDVYVYWQTSESKTVVTYHIPQHSSLEYVDSRYRNRALMSPAGMLRGDFSLRLFNVTPQDEQKFHCLVLSRSLGFQEVLSVEVTLHVAANFSVGGGGSGGGGSGGGGSDTQEKEVRAMVGSDVELSCACPEGSRFDLNDVYVYWQTSESKTVVTYHIPQHSSLEYVDSRYRNRALMSPAGMLRGDFSLRLFNVTPQDEQKFHCLVLSRSLGFQEVLSVEVTLHVAANFSVGSGGSGGGGSGGGGSWPPPGTGDVVVQAPTQVSGFLGDSVTLPCYLQVPNMEVTHVSQLTWARHGESGSMAVFHQTQGPWYAESKRLEFVAARLGAELRNASLRVFGLRAEDEGNYTCQFVTFPQRSRSVDIWLRVLGSGGGGSDYKDDDDKHHHHHH
Take B10: the EC50 stood at 2.3 nM with human TIGIT and 3.39 nM in the experiment with human CD28 [4].

In general, EC50 refers to the concentration needed to bring the measured effect to its halfway point. Lower therefore signals a more potent agent.
